Laboratory results as given in paper doi:10.1101/521815 (bioRxiv, 2019).
Substitutions are numbered along the chain they refer to. Numbers in names are those of the source.

B1: ABIN-1 UBAN (mouse, aa 463-532), GST tag cleaved (domain or fragment, UniProt Q9WUU8 463-532, looked up)
chain: LRKQELVTQNELLKQQVKIFEEDFQRERSDRERMNEEKEELKKQVEKLQAQVTLTNAQLKTLKEEEKAKE
B2: GST-NEMO UBAN (aa 250-339), wild type (domain or fragment, mouse, UniProt O88522 250-339, looked up)
chain: GMQLEDLRQQLQQAEEALVAKQELIDKLKEEAEQHKIVMETVPVLKAQADIYKADFQAERHAREKLVEKKEYLQEQLEQLQREFNKLKVG
B3: GST-NEMO UBAN (aa 250-339) A303E (domain or fragment, mouse, UniProt O88522 250-339, looked up)
chain: B2 chain with A54E
B4: GST-OPTN UBAN (aa 420-509) S473E (domain or fragment, human, UniProt Q96CV9 420-509, looked up)
chain: RAVLKELSEKLELAEKALASKQLQMDEMKQTIAKQEEDLETMTILRAQMEVYCEDFHAERAAREKIHEEKEQLALQLAVLLKENDAFEDG
B5: GST-OPTN UBAN (aa 420-509), wild type (domain or fragment, human, UniProt Q96CV9 420-509, looked up)
chain: B4 chain with E54S
B6: GST-ABIN-1 UBAN (aa 463-532), wild type (domain or fragment, mouse, UniProt Q9WUU8 463-532, looked up)
chain: B1 chain

Molecular target: the molecule itself
Test: crystal structure

| Binder | stoichiometry N [chains in the oligomer] |
| --- | --- |
| B1 | 2 |

Molecular target: M1-linked tetra-ubiquitin (UniProt P0CG48 1-76; P0CG48 1-76; P0CG48 1-76; P0CG48 1-76)
Sequence (P0CG48 1-304, one chain of several): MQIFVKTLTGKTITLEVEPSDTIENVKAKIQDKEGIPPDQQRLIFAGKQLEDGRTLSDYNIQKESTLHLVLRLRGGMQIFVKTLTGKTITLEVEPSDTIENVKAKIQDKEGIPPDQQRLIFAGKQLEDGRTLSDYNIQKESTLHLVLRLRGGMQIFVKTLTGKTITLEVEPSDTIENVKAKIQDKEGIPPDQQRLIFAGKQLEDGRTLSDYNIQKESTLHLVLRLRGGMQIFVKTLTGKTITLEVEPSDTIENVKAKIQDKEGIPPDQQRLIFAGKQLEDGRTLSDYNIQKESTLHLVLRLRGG
Test: SPR

| Kd [nM] | Binder |
| --- | --- |
| 562 | B2 |
| 362 | B3 |
| 508 | B4 |
| 916 | B5 |
| 972 | B6 |
